Results: US20170015742A1 (published 2017)

B1: AB014-GS6-9E8.4 VH-VK (bispecific antibody, human IgG1, kappa, L234A L235A)
heavy: EVQLVESGGGLVQPGGSLRLSCAASGYTFTNYGMNWVRQAPGKGLEWVGWINTYTGEPTYAADFKRRFTFSLDTSKSTAYLQMNSLRAEDTAVYYCAKYPHYYGSSHWYFDVWGQGTLVTVSSASTKGPSVFPLAPSSKSTSGGTAALGCLVKDYFPEPVTVSWNSGALTSGVHTFPAVLQSSGLYSLSSVVTVPSSSLGTQTYICNVNHKPSNTKVDKKVEPKSCDKTHTCPPCPAPEAAGGPSVFLFPPKPKDTLMISRTPEVTCVVVDVSHEDPEVKFNWYVDGVEVHNAKTKPREEQYNSTYRVVSVLTVLHQDWLNGKEYKCKVSNKALPAPIEKTISKAKGQPREPQVYTLPPSREEMTKNQVSLTCLVKGFYPSDIAVEWESNGQPENNYKTTPPVLDSDGSFFLYSKLTVDKSRWQQGNVFSCSVMHEALHNAYTQKSLSLSPGKGGSGGGEVTLRESGPALVKPTQTLTLTCTFSGFSLSTYGMGVGWIRQPPGKALEWLANIWWDDDKYYNPSLKNRLTISKDTSKNQVVLTMTNMDPVDTATYYCARIESIGTTYSFDYWGQGTMVTVSSGGGGSGGGGSGGGGSEIVLTQSPGTLSLSPGERATLSCERSSGDIGDSYVSWYQQKPGQAPRLVIYADDQRPSGIPDRFSGSGSGTDFTLTISRLEPEDFAVYYCQSYDINIDIVFGGGTKVEIK
light: not shown
B2: AB014-GS10-9E8.4 VH-VK (bispecific antibody, human IgG1, kappa, L234A L235A)
heavy: EVQLVESGGGLVQPGGSLRLSCAASGYTFTNYGMNWVRQAPGKGLEWVGWINTYTGEPTYAADFKRRFTFSLDTSKSTAYLQMNSLRAEDTAVYYCAKYPHYYGSSHWYFDVWGQGTLVTVSSASTKGPSVFPLAPSSKSTSGGTAALGCLVKDYFPEPVTVSWNSGALTSGVHTFPAVLQSSGLYSLSSVVTVPSSSLGTQTYICNVNHKPSNTKVDKKVEPKSCDKTHTCPPCPAPEAAGGPSVFLFPPKPKDTLMISRTPEVTCVVVDVSHEDPEVKFNWYVDGVEVHNAKTKPREEQYNSTYRVVSVLTVLHQDWLNGKEYKCKVSNKALPAPIEKTISKAKGQPREPQVYTLPPSREEMTKNQVSLTCLVKGFYPSDIAVEWESNGQPENNYKTTPPVLDSDGSFFLYSKLTVDKSRWQQGNVFSCSVMHEALHNAYTQKSLSLSPGKGGSGGGGSGGEVTLRESGPALVKPTQTLTLTCTFSGFSLSTYGMGVGWIRQPPGKALEWLANIWWDDDKYYNPSLKNRLTISKDTSKNQVVLTMTNMDPVDTATYYCARIESIGTTYSFDYWGQGTMVTVSSGGGGSGGGGSGGGGSEIVLTQSPGTLSLSPGERATLSCERSSGDIGDSYVSWYQQKPGQAPRLVIYADDQRPSGIPDRFSGSGSGTDFTLTISRLEPEDFAVYYCQSYDINIDIVFGGGTKVEIK
light: not shown
B3: AB014-GS15-9E8.4 VH-VK (bispecific antibody, human IgG1, kappa, L234A L235A)
heavy: EVQLVESGGGLVQPGGSLRLSCAASGYTFTNYGMNWVRQAPGKGLEWVGWINTYTGEPTYAADFKRRFTFSLDTSKSTAYLQMNSLRAEDTAVYYCAKYPHYYGSSHWYFDVWGQGTLVTVSSASTKGPSVFPLAPSSKSTSGGTAALGCLVKDYFPEPVTVSWNSGALTSGVHTFPAVLQSSGLYSLSSVVTVPSSSLGTQTYICNVNHKPSNTKVDKKVEPKSCDKTHTCPPCPAPEAAGGPSVFLFPPKPKDTLMISRTPEVTCVVVDVSHEDPEVKFNWYVDGVEVHNAKTKPREEQYNSTYRVVSVLTVLHQDWLNGKEYKCKVSNKALPAPIEKTISKAKGQPREPQVYTLPPSREEMTKNQVSLTCLVKGFYPSDIAVEWESNGQPENNYKTTPPVLDSDGSFFLYSKLTVDKSRWQQGNVFSCSVMHEALHNAYTQKSLSLSPGKGGSGGGGSGGGGSGGEVTLRESGPALVKPTQTLTLTCTFSGFSLSTYGMGVGWIRQPPGKALEWLANIWWDDDKYYNPSLKNRLTISKDTSKNQVVLTMTNMDPVDTATYYCARIESIGTTYSFDYWGQGTMVTVSSGGGGSGGGGSGGGGSEIVLTQSPGTLSLSPGERATLSCERSSGDIGDSYVSWYQQKPGQAPRLVIYADDQRPSGIPDRFSGSGSGTDFTLTISRLEPEDFAVYYCQSYDINIDIVFGGGTKVEIK
light: not shown
B4: AB014-GS10-9E8.4 VK-VH (bispecific antibody, human IgG1, kappa, L234A L235A)
heavy: EVQLVESGGGLVQPGGSLRLSCAASGYTFTNYGMNWVRQAPGKGLEWVGWINTYTGEPTYAADFKRRFTFSLDTSKSTAYLQMNSLRAEDTAVYYCAKYPHYYGSSHWYFDVWGQGTLVTVSSASTKGPSVFPLAPSSKSTSGGTAALGCLVKDYFPEPVTVSWNSGALTSGVHTFPAVLQSSGLYSLSSVVTVPSSSLGTQTYICNVNHKPSNTKVDKKVEPKSCDKTHTCPPCPAPEAAGGPSVFLFPPKPKDTLMISRTPEVTCVVVDVSHEDPEVKFNWYVDGVEVHNAKTKPREEQYNSTYRVVSVLTVLHQDWLNGKEYKCKVSNKALPAPIEKTISKAKGQPREPQVYTLPPSREEMTKNQVSLTCLVKGFYPSDIAVEWESNGQPENNYKTTPPVLDSDGSFFLYSKLTVDKSRWQQGNVFSCSVMHEALHNAYTQKSLSLSPGKGGSGGGGSGGEIVLTQSPGTLSLSPGERATLSCERSSGDIGDSYVSWYQQKPGQAPRLVIYADDQRPSGIPDRFSGSGSGTDFTLTISRLEPEDFAVYYCQSYDINIDIVFGGGTKVEIKGGGGSGGGGSGGGGSEVTLRESGPALVKPTQTLTLTCTFSGFSLSTYGMGVGWIRQPPGKALEWLANIWWDDDKYYNPSLKNRLTISKDTSKNQVVLTMTNMDPVDTATYYCARIESIGTTYSFDYWGQGTMVTVSS
light: not shown
B5: 4G8.2-GS10-9E8.4 (bispecific antibody, human IgG1, kappa, L234A L235A)
heavy: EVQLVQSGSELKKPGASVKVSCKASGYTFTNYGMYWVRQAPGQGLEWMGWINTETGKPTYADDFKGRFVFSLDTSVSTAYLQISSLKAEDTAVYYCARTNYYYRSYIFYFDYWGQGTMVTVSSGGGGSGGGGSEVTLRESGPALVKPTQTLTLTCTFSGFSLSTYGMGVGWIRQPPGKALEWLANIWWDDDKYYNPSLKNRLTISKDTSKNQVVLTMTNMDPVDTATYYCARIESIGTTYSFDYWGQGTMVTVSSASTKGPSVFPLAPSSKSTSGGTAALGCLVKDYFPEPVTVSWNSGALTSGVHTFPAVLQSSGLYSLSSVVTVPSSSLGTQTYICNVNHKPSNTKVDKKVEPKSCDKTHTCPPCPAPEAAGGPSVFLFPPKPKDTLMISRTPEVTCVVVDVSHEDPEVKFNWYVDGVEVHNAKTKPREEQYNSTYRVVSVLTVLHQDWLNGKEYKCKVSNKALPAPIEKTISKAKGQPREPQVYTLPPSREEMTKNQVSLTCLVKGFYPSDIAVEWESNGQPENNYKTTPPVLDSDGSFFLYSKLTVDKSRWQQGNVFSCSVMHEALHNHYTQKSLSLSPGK
light: ATQLTQSPSLSASVGDRVTITCRASESVSTHMHWYQQKPGKQPKLLIYGASNLESGVPSRFSGSGSGTDFTLTISSLQPEDFATYFCQQSWNDPFTFGQGTKLEIKRGGSGGGGSGEFVLTQSPGTLSLSPGERATLSCERSSGDIGDSYVSWYQQKPGQAPRLVIYADDQRPSGIPDRFSGSGSGTDFTLTISRLEPEDFAVYYCQSYDINIDIVFGGGTKVEIKRTVAAPSVFIFPPSDEQLKSGTASVVCLLNNFYPREAKVQWKVDNALQSGNSQESVTEQDSKDSTYSLSSTLTLSKADYEKHKVYACEVTHQGLSSPVTKSFNRGEC
B6: 4G8.4-GS10-9E8.4 (bispecific antibody, human IgG1, kappa, L234A L235A)
heavy: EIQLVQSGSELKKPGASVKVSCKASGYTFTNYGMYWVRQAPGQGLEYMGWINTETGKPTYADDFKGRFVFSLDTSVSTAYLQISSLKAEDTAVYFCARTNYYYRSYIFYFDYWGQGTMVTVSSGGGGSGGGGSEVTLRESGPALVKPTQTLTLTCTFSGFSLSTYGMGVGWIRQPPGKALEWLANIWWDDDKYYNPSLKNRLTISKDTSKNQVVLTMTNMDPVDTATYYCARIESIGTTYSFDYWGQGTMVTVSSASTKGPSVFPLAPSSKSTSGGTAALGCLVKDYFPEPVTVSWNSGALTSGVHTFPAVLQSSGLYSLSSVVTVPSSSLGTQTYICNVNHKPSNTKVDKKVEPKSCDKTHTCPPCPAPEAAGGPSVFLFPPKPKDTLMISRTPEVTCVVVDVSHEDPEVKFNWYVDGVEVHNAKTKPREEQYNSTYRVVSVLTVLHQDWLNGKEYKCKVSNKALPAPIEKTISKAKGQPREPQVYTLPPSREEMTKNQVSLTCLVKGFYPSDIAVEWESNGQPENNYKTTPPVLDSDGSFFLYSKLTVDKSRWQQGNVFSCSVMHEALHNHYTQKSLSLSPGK
light: AIQLTQSPSSLSASVGDRVTITCRASESVSTHMHWYQQKPGKAPKLLIYGASNLESGVPSRFSGSGSGTDFTLTISSLQPEDFATYYCQQSWNDPFTFGQGTKLEIKRGGSGGGGSGEFVLTQSPGTLSLSPGERATLSCERSSGDIGDSYVSWYQQKPGQAPRLVIYADDQRPSGIPDRFSGSGSGTDFTLTISRLEPEDFAVYYCQSYDINIDIVFGGGTKVEIKRTVAAPSVFIFPPSDEQLKSGTASVVCLLNNFYPREAKVQWKVDNALQSGNSQESVTEQDSKDSTYSLSSTLTLSKADYEKHKVYACEVTHQGLSSPVTKSFNRGEC
B7: 4G8.5-GS10-9E8.4 (bispecific antibody, human IgG1, kappa, L234A L235A)
heavy: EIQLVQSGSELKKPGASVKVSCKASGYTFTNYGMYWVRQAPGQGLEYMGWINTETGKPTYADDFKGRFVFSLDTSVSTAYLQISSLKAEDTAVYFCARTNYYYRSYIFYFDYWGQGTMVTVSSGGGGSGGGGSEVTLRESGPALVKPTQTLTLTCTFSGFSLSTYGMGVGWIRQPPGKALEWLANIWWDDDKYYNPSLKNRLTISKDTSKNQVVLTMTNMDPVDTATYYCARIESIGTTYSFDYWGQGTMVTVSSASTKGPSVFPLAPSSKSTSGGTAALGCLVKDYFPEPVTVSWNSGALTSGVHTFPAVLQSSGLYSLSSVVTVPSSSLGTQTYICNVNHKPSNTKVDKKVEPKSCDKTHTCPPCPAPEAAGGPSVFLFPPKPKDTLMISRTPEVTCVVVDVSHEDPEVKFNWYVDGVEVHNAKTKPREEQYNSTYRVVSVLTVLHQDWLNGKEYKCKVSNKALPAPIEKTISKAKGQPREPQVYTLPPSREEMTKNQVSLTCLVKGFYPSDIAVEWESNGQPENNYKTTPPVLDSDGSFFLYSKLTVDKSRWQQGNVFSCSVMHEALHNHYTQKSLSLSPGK
light: ATQLTQSPSLSASVGDRVTITCRASESVSTHMHWYQQKPGKQPKLLIYGASNLESGVPSRFSGSGSGTDFTLTISSLQPEDFATYFCQQSWNDPFTFGQGTKLEIKRGGSGGGGSGEFVLTQSPGTLSLSPGERATLSCERSSGDIGDSYVSWYQQKPGQAPRLVIYADDQRPSGIPDRFSGSGSGTDFTLTISRLEPEDFAVYYCQSYDINIDIVFGGGTKVEIKRTVAAPSVFIFPPSDEQLKSGTASVVCLLNNFYPREAKVQWKVDNALQSGNSQESVTEQDSKDSTYSLSSTLTLSKADYEKHKVYACEVTHQGLSSPVTKSFNRGEC

How the values were obtained:
[1] = molecular target: recombinant human VEGF165 (human, UniProt P15692 207-395); test: cell-based or functional assay
recombinant human VEGF165, sequence (P15692 other isoform, or with tags, fused parts or gaps limits assumed): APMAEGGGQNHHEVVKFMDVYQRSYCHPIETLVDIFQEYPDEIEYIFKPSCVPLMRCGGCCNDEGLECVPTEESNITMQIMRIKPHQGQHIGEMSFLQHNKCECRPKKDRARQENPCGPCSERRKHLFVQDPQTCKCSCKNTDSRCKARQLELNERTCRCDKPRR

[2] = molecular target: recombinant human PDGF-BB (human, UniProt P01127 82-190); test: cell-based or functional assay
recombinant human PDGF-BB, sequence (P01127 82-190 limits assumed): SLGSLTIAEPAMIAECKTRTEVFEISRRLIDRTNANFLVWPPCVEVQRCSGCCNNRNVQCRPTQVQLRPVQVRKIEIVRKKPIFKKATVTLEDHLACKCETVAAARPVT

Binder	Potency IC50 (nM) HMVEC-d hVEGF165 [1]	Potency IC50 (nM) NIH-3T3 hPDGF-BB [2]
B1	0.124 nM	0.222 nM
B2	0.095 nM	0.063 nM
B3	0.13 nM	0.066 nM
B4	0.086 nM	0.074 nM
B5	0.221 nM	> 5 nM
B6	0.281 nM	1.33 nM
B7	0.079 nM	> 5 nM
